Test results as given in patent publication US20210292396A1 (INTERNATIONAL AIDS VACCINE INITIATIVE, published 2021).

Experiments:
Assay in all cases: cell-based or functional assay
[1] = molecular target: HIV Env of isolate 6952.v1.c20 (HIV)
[2] = molecular target: HIV Env of isolate AC10.0.29 (HIV)
[3] = molecular target: HIV Env of isolate SC422661.8 (HIV)
[4] = molecular target: HIV Env of isolate Q461.e2 (HIV)
[5] = molecular target: HIV Env of isolate MS208.A1 (HIV)
[6] = molecular target: HIV Env of isolate CAP45.2.00.G3 (HIV)
[7] = molecular target: HIV Env of isolate 3301.v1.c24 (HIV)
[8] = molecular target: HIV Env of isolate 3103.v3.c10 (HIV)
[9] = molecular target: HIV Env of isolate X1632_S2_B10 (HIV)
[10] = molecular target: HIV Env of isolate CNE52 (HIV)
[11] = molecular target: HIV Env of isolate CAP210.2.00.E8 (HIV)
[12] = molecular target: HIV Env of isolate Ce2010_F5 (HIV)
[13] = molecular target: HIV Env of isolate 235-47 (HIV)
[14] = molecular target: HIV Env of isolate PVO.4 (HIV)
[15] = molecular target: HIV Env of isolate Ce0393_C3 (HIV)
[16] = molecular target: HIV Env of isolate ZM249M.PL1 (HIV)
[17] = molecular target: HIV Env of isolate T250-4 (HIV)
[18] = molecular target: HIV Env of isolate Ce2060_G9 (HIV)
[19] = molecular target: HIV Env of isolate BJOX015000.11.5 (HIV)
[20] = molecular target: HIV Env of isolate BJOX025000.01.1 (HIV)
[21] = molecular target: HIV Env of isolate BJOX009000.02.4 (HIV)
[22] = molecular target: HIV Env of isolate T255-34 (HIV)
[23] = molecular target: HIV Env of isolate 7030102001E5(Rev-) (HIV)
[24] = molecular target: HIV Env of isolate ZM53M.PB12 (HIV)
[25] = molecular target: HIV Env of isolate 249M_B10 (HIV)
[26] = molecular target: HIV Env of isolate CNE30 (HIV)
[27] = molecular target: HIV Env of isolate ZM214M.PL15 (HIV)
[28] = molecular target: HIV Env of isolate 6540.v4.c1 (HIV)
[29] = molecular target: HIV Env of isolate CNE8 (HIV)
[30] = molecular target: HIV Env of isolate 0260.v5.c36 (HIV)
[31] = molecular target: HIV Env of isolate QH0692.42 (HIV)
[32] = molecular target: HIV Env of isolate CNE5 (HIV)
[33] = molecular target: HIV Env of isolate CNE17 (HIV)
[34] = molecular target: HIV Env of isolate HIV-16055-2.3 (HIV)
[35] = molecular target: HIV Env of isolate BJOX010000.06.2 (HIV)
[36] = molecular target: HIV Env of isolate 1394C9G1(Rev-) (HIV)
[37] = molecular target: HIV Env of isolate HIV-0013095-2.11 (HIV)
[38] = molecular target: HIV Env of isolate Q23.17 (HIV)
[39] = molecular target: HIV Env of isolate T278-50 (HIV)
[40] = molecular target: HIV Env of isolate Du156.12 (HIV)
[41] = molecular target: HIV Env of isolate 6545.v4.c1 (HIV)
[42] = molecular target: HIV Env of isolate 191084_B7-19 (HIV)
[43] = molecular target: HIV Env of isolate A07412M1.vrc12 (HIV)
[44] = molecular target: HIV Env of isolate T257-31 (HIV)
[45] = molecular target: HIV Env of isolate ZM233M.PB6 (HIV)

B1: ePGT121.15.H1.L1 (antibody, V domains shown)
VH: QMQLQESGPGLVKPGETLSLTCSVSGASISSSYWSWLRETPGKGLEWIGYTHHSGDTNYAPSLKSRVHLGLHPSKNQVSLSLTSVTAADTAVYYCARTLHGRRIYGVVAFNEWFTYFYWEVWGNGTQVTVSS
VL: SDISVAPGETVRISCGGESIGSRAVQWYQHRAGQAPKLIIYNNQDRPPGIPERFSGSPDIDFGTTATLTITNVEAGDEATYYCHIWDSRRPTNWVFGGGTTLTVL
B1 was tested, and the “neutralization IC50” value [1] was 0.0009 µg/mL, the “neutralization IC50” value [2] was 0.0002 µg/mL and the “neutralization IC50” value [3] was 0.0005 µg/mL. The “neutralization IC50” value [4] was over 50 µg/mL, the “neutralization IC50” value [5] was over 50 µg/mL and the “neutralization IC50” value [6] was 5.02 µg/mL. The “neutralization IC50” value [7] was 0.0029 µg/mL, the “neutralization IC50” value [8] was 0.0017 µg/mL and the “neutralization IC50” value [9] was over 50 µg/mL. For the same binder, the “neutralization IC50” value [10] was 0.0203 µg/mL, the “neutralization IC50” value [11] was 0.0052 µg/mL and the “neutralization IC50” value [12] was over 50 µg/mL. For the same binder, the “neutralization IC50” value [13] was 0.0019 µg/mL, the “neutralization IC50” value [14] was 0.0004 µg/mL and the “neutralization IC50” value [15] was over 50 µg/mL. The “neutralization IC50” value [16] was 0.0024 µg/mL, the “neutralization IC50” value [17] was 0.0002 µg/mL and the “neutralization IC50” value [18] was over 50 µg/mL. For the same binder, the “neutralization IC50” value [19] was over 50 µg/mL, the “neutralization IC50” value [20] was over 50 µg/mL and the “neutralization IC50” value [21] was 0.0046 µg/mL. For the same binder, the “neutralization IC50” value [22] was 0.0221 µg/mL, the “neutralization IC50” value [23] was 0.0002 µg/mL and the “neutralization IC50” value [24] was 0.0006 µg/mL. For the same binder, the “neutralization IC50” value [25] was 0.0022 µg/mL, the “neutralization IC50” value [26] was 0.0024 µg/mL and the “neutralization IC50” value [27] was 0.0006 µg/mL. For the same binder, the “neutralization IC50” value [28] was over 50 µg/mL, the “neutralization IC50” value [29] was over 50 µg/mL and the “neutralization IC50” value [30] was 0.004 µg/mL. For the same binder, the “neutralization IC50” value [31] was 0.0008 µg/mL, the “neutralization IC50” value [32] was 15.8 µg/mL and the “neutralization IC50” value [33] was 0.0037 µg/mL. The “neutralization IC50” value [34] was 0.0003 µg/mL, the “neutralization IC50” value [35] was over 50 µg/mL and the “neutralization IC50” value [36] was 0.0004 µg/mL. The “neutralization IC50” value [37] was 0.0001 µg/mL, the “neutralization IC50” value [38] was 0.0004 µg/mL and the “neutralization IC50” value [39] was 0.0124 µg/mL. For the same binder, the “neutralization IC50” value [40] was 0.0001 µg/mL, the “neutralization IC50” value [41] was over 50 µg/mL and the “neutralization IC50” value [42] was 0.0009 µg/mL. For the same binder, the “neutralization IC50” value [43] was 0.0022 µg/mL, the “neutralization IC50” value [44] was over 50 µg/mL and the “neutralization IC50” value [45] was 0.0124 µg/mL.

B2: PGT-121 (antibody, V domains shown)
VH: QMQLQESGPGLVKPSETLSLTCSVSGASISDSYWSWIRRSPGKGLEWIGYVHKSGDTNYSPSLKSRVNLSLDTSKNQVSLSLVAATAADSGKYYCARTLHGRRIYGIVAFNEWFTYFYMDVWGNGTQVTVSS
VL: SDISVAPGETARISCGEKSLGSRAVQWYQHRAGQAPSLIIYNNQDRPSGIPERFSGSPDSPFGTTATLTITSVEAGDEADYYCHIWDSRVPTKWVFGGGTTLTVLG
B2 was tested, and the “neutralization IC50” value [1] was 0.056 µg/mL, the “neutralization IC50” value [2] was 0.024 µg/mL and the “neutralization IC50” value [3] was 0.038 µg/mL. For the same binder, the “neutralization IC50” value [4] was over 50 µg/mL, the “neutralization IC50” value [5] was over 50 µg/mL and the “neutralization IC50” value [6] was 1.63 µg/mL. The “neutralization IC50” value [7] was 0.008 µg/mL, the “neutralization IC50” value [8] was 0.009 µg/mL and the “neutralization IC50” value [9] was over 50 µg/mL. For the same binder, the “neutralization IC50” value [10] was 2.05 µg/mL, the “neutralization IC50” value [11] was 26.3 µg/mL and the “neutralization IC50” value [12] was over 50 µg/mL. For the same binder, the “neutralization IC50” value [13] was 0.137 µg/mL, the “neutralization IC50” value [14] was 0.098 µg/mL and the “neutralization IC50” value [15] was over 50 µg/mL. For the same binder, the “neutralization IC50” value [16] was over 50 µg/mL, the “neutralization IC50” value [17] was 0.001 µg/mL and the “neutralization IC50” value [18] was over 50 µg/mL. For the same binder, the “neutralization IC50” value [19] was over 50 µg/mL, the “neutralization IC50” value [20] was over 50 µg/mL and the “neutralization IC50” value [21] was 2.86 µg/mL. The “neutralization IC50” value [22] was 18.7 µg/mL, the “neutralization IC50” value [23] was 0.009 µg/mL and the “neutralization IC50” value [24] was 0.001 µg/mL. The “neutralization IC50” value [25] was over 50 µg/mL, the “neutralization IC50” value [26] was over 50 µg/mL and the “neutralization IC50” value [27] was 0.46 µg/mL. The “neutralization IC50” value [28] was over 50 µg/mL, the “neutralization IC50” value [29] was over 50 µg/mL and the “neutralization IC50” value [30] was 0.053 µg/mL. The “neutralization IC50” value [31] was 0.302 µg/mL, the “neutralization IC50” value [32] was over 50 µg/mL and the “neutralization IC50” value [33] was 7.6 µg/mL. For the same binder, the “neutralization IC50” value [34] was 0.153 µg/mL, the “neutralization IC50” value [35] was over 50 µg/mL and the “neutralization IC50” value [36] was 0.264 µg/mL. The “neutralization IC50” value [37] was over 50 µg/mL, the “neutralization IC50” value [38] was 0.001 µg/mL and the “neutralization IC50” value [39] was over 50 µg/mL. For the same binder, the “neutralization IC50” value [40] was 0.004 µg/mL, the “neutralization IC50” value [41] was over 50 µg/mL and the “neutralization IC50” value [42] was 0.011 µg/mL. The “neutralization IC50” value [43] was 0.009 µg/mL, the “neutralization IC50” value [44] was over 50 µg/mL and the “neutralization IC50” value [45] was 3.69 µg/mL.
